T1: TabHLH1 (Taraxacum antungense Kitag, UniProt A0A482LNV1 1-521)
T1 sequence: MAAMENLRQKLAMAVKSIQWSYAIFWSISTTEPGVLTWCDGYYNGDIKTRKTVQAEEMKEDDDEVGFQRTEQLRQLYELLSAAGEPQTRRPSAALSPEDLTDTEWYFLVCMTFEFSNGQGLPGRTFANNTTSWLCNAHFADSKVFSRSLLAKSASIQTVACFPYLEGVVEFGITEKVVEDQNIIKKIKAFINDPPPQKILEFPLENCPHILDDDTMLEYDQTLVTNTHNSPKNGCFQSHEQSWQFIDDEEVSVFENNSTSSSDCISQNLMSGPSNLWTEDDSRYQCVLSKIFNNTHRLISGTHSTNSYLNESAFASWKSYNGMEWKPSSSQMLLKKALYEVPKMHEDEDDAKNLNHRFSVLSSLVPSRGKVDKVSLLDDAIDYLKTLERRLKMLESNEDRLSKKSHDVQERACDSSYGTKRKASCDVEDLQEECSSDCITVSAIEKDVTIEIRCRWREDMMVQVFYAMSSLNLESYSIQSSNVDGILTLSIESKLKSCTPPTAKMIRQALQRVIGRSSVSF


Molecular target: T1, TabHLH1
Test: EMSA; unlabeled identical cold probe used as control; EMSA binding buffer (Beyotime, 10x stock), 25 °C, 30 min; salt and pH not stated
Conditions: protein: recombinant; tags: GST (pGEX4T-1); chain copies: 2; label: 3' biotin on both strands; blunt

Row | Binder | binding result
1 | TaHQT2 promoter E-box probe (dsDNA) DNA 1: CGAACGGAGGAACATGTGTGCTCTGAAAAT DNA 2: ATTTTCAGAGCACACATGTTCCTCCGTTCG | binds
2 | Ta4CL promoter E-box probe (dsDNA) DNA 1: TGGCCAAAATCCCATGTGATTTCGGCCCAC DNA 2: GTGGGCCGAAATCACATGGGATTTTGGCCA | binds

Reference: publication PMC8408231, “The basic helix-loop-helix transcription factor TabHLH1 increases chlorogenic acid and luteolin biosynthesis in Taraxacum antungense Kitag”
